Test system: MUC5AC within type II porcine stomach mucin extract

| Substance | immunoblot of MUC5AC degradation in type II mucin extract | immunoblot of MUC5AC degradation, in the presence of EDTA |
| --- | --- | --- |
| SsIE (residues 90-1520), E. coli strain W | MUC5AC was processed into a different ˜60 kDa species | no activity was detected |
| ChiA C-domain (ChiA-CTD: residues 419-762), wild-type | – | no activity was detected |

— US20210309984
